Reference: article PMC6891888 (Immunity, 2019)

Molecular target: T1, HIV-1 Env on the cell surface (HIV-1, strain BG505 (clade A), wild type, UniProt Q2N0S6)
T1 construct: also called cell-surface HIV-1 Env; source: 293T, transfected, on cells
Assay: flow cytometry on cells
Conditions: one partner purified

B1: 1C2 (rabbit monoclonal antibody, IgG) (antibody, V domains shown)
VH: QSLEESGGDLVKPGASLTLTCTASGFSFGWNDYMSWVRQAPGKGLEWIGCIYAGSTRSTYYANWAKGRLTISKTSSTAVTLQMTSLTAADTATYFCARGAVTYDGLGGAYLKHFNLWGPGTLVTVSS
VL: AIKMTQTPSSVSAAVGGTVTVNCRASEDIESYLAWYQQKPGQPPKLLIYDTSKLASGVPSRFKGSGSGTQFALTISGVQCDDAATYYCLYGYISSDRIDFGFGGGTELVVK
notes: also called bNAb 1C2; vax-bNAb 1C2
B1: binds.
